Molecular target: T1, HA-SPOP, wild type (UniProt O43791 1-374)
T1 construct: SPOP (Speckle-type POZ protein); also called HA-SPOP WT; pcDNA3-HA-SPOP; source: 293T, transfected, in lysate; also purified from transfected 293T cells using HA-tag beads
Experiment: pull-down; GST pull-down: purified GST-PrLZ and HA-SPOP or His-SPOP incubated 3 h at 4 °C, washed with RIPA buffer, western blot (Fig. 2c: antibody against His)
Details: both partners purified

T1 sequence (O43791 whole entry): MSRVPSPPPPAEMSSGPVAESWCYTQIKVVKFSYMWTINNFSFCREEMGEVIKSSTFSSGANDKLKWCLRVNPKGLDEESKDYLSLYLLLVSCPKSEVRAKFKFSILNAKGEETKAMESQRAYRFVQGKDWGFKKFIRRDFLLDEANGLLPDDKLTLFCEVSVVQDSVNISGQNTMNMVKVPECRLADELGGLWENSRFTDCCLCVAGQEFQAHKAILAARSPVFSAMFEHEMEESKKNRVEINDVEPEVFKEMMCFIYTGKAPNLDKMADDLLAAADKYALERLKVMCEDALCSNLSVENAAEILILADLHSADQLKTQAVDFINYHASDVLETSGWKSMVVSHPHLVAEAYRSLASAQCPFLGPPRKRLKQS

B1: GST-PrLZ, wild type (bacterial) (natural protein, UniProt P55327 1-224, looked up)
chain: MDCREMDLYEDYQSPFDFDAGVNKSYLYLSPSGNSSPPGSPTLQKFGLLRTDPVPEEGEDVAATISATETLSEEEQEELRRELAKVEEEIQTLSQVLAAKEKHLAEIKRKLGINSLQELKQNIAKGWQDVTATSAYKKTSETLSQAGQKASAAFSSVGSVITKKLEDVKNSPTFKSFEEKVENLKSKVGGTKPAGGDFGEVLNSAANASATTTEPLPEKTQESL
notes: Prostate Leucine Zipper (PrLZ); also called GST-PrLZ WT; pGEX-4T-1-GST-PrLZ; source: E. coli BL21, purified (Glutathione Sepharose 4B)
Question: Does B1 bind?
Answer: binds

Source: PMC9345960, “ERK1/2 inhibits Cullin 3/SPOP-mediated PrLZ ubiquitination and degradation to modulate prostate cancer progression” (Cell Death and Differentiation, 2022)
